The values below come from US20250152729A1 (CANCER RESEARCH TECHNOLOGY, published 2025).

Assay [1] deals with T1, recombinant human SEMA4A AviHis10, biotinylated (human, UniProt Q9H3S1 33-683, biotin on the Avi tag (BirA)).
T1 construct: The text says amino acids 33-683 of Q9H3S1 with C-terminal Avi tag and His10 tag; also called avi-SEMA4A-His10
T1 sequence: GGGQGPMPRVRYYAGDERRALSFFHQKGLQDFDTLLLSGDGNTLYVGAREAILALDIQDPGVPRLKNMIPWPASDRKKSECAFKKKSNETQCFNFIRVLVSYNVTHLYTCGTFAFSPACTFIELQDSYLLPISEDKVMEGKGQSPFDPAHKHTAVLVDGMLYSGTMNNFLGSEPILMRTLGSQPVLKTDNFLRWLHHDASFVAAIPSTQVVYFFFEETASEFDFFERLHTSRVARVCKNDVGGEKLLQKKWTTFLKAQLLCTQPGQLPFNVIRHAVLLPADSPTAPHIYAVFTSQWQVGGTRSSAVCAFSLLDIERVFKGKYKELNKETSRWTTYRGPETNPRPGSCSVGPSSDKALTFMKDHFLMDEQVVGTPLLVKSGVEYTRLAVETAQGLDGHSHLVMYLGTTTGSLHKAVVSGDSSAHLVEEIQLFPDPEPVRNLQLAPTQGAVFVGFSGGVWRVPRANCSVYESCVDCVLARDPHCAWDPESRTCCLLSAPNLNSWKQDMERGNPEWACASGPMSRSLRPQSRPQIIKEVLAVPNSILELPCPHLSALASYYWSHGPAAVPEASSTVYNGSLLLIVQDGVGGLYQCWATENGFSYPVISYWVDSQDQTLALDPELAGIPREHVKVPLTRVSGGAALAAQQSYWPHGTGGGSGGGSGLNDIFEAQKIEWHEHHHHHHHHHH
Put plainly: BLI (OctetRED), biotinylated SEMA4A on streptavidin tip, IgG as analyte, 1:1 model; KD(observed) IgG. How it is done:
An Octet Kinetics buffer (PBS containing 0.01% (v/v) BSA and 0.002% (v/v) Tween20) is typically used as the diluent buffer for the analyte samples and as the flow buffer during the dissociation phase. The experimental data is recorded as shift in interference pattern (nm) over time, which is directly proportional to the optical thickness at the biosensor tip, which in turn is an approximate measure of the mass of analyte bound. The proprietary Octet Data Analysis software package can then be used to process data and fit binding models to the data sets. Returned association (ka, M-1 s-1) and dissociation (kd, s-1) rate constants allow calculation of dissociation (KD, M) affinity constants.
The affinity of binding between the analytes (humanised and phage display derived IgGs as human Alya IgG1s and Fabs) and human SEMA4A and cynomolgus SEMA4A, was estimated using assays in which the biotinylated SEMA4A antigen was captured on a streptavidin sensor tip. A fresh sensor tip was used for each measurement and no regeneration was used. A series of dilutions of the lead Fabs and human Alya IgG1s (3.25-240 nM) were individually placed in contact with the ligand surface for a sufficient amount of time to observe sensorgrams that could be fitted to an appropriate binding model with confidence (typically 5 minutes), followed by an appropriate length of dissociation time (typically 10 minutes). Blank reference (0 nM analyte) data were subtracted from each dataset to reduce the impact of any buffer artefacts or non-specific binding effects. A 1:1 binding model was then fitted simultaneously to the data from each analyte titration using the Octet Evaluation software (Table 8).

In assay [2] the target is T2, human SEMA4B expressed on expi293 cells (human, UniProt Q9NPR2 44-837).
T2 construct: whole, on cells
T2 sequence (looked up): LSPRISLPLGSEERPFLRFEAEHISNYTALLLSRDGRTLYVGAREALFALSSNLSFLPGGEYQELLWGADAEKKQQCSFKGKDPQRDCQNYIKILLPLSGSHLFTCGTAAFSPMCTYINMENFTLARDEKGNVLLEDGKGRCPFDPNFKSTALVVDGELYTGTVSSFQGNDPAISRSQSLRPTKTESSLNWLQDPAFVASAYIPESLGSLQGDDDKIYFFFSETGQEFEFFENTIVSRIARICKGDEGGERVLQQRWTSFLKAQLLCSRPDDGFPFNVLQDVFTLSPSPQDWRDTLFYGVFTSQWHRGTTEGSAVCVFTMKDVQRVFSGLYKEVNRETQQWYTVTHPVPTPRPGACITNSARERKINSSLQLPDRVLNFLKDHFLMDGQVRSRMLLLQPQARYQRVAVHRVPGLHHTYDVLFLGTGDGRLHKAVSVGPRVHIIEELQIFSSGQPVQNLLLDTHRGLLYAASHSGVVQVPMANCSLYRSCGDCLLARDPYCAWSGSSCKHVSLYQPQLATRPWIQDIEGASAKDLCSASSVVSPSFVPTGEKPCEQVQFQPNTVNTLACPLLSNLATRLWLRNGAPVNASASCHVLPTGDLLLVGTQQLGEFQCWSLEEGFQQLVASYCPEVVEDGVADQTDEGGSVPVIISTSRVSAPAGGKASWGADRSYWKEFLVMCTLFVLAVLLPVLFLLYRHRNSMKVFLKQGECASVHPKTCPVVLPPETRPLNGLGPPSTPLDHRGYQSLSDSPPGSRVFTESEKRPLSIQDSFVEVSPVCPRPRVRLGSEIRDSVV
Put plainly: Mirrorball direct binding, dilution series on expi293 cells transiently transfected with human SEMA4B, anti-human Alexa Fluor 647.

B1: C0120914 human Alya IgG1 (antibody, V domains shown)
VH: QVQLQESGPGLVKPSETLSLTCTVSGGSVSSGRYDWSWIRQPPGKGLEWIGHIYYTGITDYNPSLRSRVTISADKPKNQFSLKLNSVTAADTAVYYCARGPFFDPWGQGTMVTVSS
VL: QSVLTQPPSVSVAPGQTASLTCGANNIGSKSVQWYQQKPGQAPVLVVYDGSDRPSGIPDRFSGSSSENTATLTISRVEAGDEADYYCQLWDSVTDRPVFGGGTKVTVL
notes: Fully human, phage display derived; human IgG1 Alya constant (239iCys, S442C, EU); unconjugated
As for B1, the Kd in assay [1] turned out to be 21 nM. Further, in assay [2], the binding result is “no binding (tested: log (M) -8 (1e-8 M))”.

B2: C0120903 human Alya IgG1 (antibody, V domains shown)
VH: EVQLVQSGAEVKKPGSSMKVSCKASGGTFNSYTINWVRQAPGQGLEWVGGFIPIFGTADYAQKFHGRVAITADESMSTAYMELSSLRSEDTAVYYCARAPLGSEPFDYWGQGTMVTVSS
VL: SYVLTQPPSVSVAPGQTARITCGGNNIGSKSVHWYQQKPGQAPVLVVYDDSDRPSGIPERFSGSNSGNTATLTISRVEAGDEADYYCQVWDSSSDHLVFGGGTKLTVL
notes: as for B1
As for B2, the Kd in assay [1] was 6 nM. Further, the binding result in assay [2] was “no binding (tested: log (M) -8 (1e-8 M))”.

B3: C0120905 human Alya IgG1 (antibody, V domains shown)
VH: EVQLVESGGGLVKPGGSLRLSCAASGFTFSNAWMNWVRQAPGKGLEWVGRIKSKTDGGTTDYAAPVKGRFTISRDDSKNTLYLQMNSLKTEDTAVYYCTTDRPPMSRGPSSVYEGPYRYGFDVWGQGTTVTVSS
VL: NFMLTQPHSVSESPGKTVTISCTGSGGNIVDNFVQWHQQRPGSAPRTVIYEDDQRPSGVPDRFSASVDSSSNSGTLSISGLKTEDEADYYCQSYDGANRWVFGGGTKLTVL
notes: as for B1
For the molecule B3, the Kd in assay [1] amounted to 10 nM. Further, the binding result in assay [2] was “no binding (tested: log (M) -8 (1e-8 M))”.

B4: C0120918 human Alya IgG1 (antibody, V domains shown)
VH: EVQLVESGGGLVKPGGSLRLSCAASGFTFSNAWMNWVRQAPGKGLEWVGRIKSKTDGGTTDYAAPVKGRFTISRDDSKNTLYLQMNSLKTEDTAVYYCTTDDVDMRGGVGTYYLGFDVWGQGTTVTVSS
VL: SYELTQPPSVSVSPGQTARITCSGDALPKQYAYWYQQKPGQAPVLVIYKDSERPSGIPERFSGSSSGTTVTLTISGVQAEDEADYYCQSADSSGTWVFGGGTKVTVL
notes: as for B1
Consider B4, for which the Kd in assay [1] was 9 nM. Further, the binding result in assay [2] is “no binding (tested: log (M) -8 (1e-8 M))”.

B5: 5Hg1-5Lg1 human Alya IgG1 (antibody, V domains shown)
VH: QVQLVQSGAEVKKPGASVKVSCKASGYTFTDYWMHWVRQAPGQGLEWMGAIDTSDSYTSYNQKFKGRVTMTRDTSTSTVYMELSSLRSEDTAVYYCARDYGNFYYYAMDYWGQGTLVTVSS
VL: QAVVTQEPSLTVSPGGTVTLTCRSSTGAVTTSNYANWFQQKPGQAPRTLIYGTNNRAPWTPARFSGSLLGGKAALTLSGAQPEDEAEYYCALWYSNHWVFGGGTKLTVL
notes: Humanised 5E3; human IgG1 Alya constant (239iCys, S442C, EU), lambda light chain; purified, unconjugated
As for B5, the Kd in assay [1] is at most 2 nM.

B6: 5Hg2-5Lg2 human Alya IgG1 (antibody, V domains shown)
VH: QVQLVQSGAEVKKPGASVKVSCKASGYTFTDYWMHWVRQAPGQRLEWMGAIDTSDSYTSYNQKFKGRVTITRDTSASTAYMELSSLRSEDTAVYYCARDYGNFYYYAMDYWGQGTLVTVSS
VL: QAVVTQEPSLTVSPGGTVTLTCRSSTGAVTTSNYANWFQQKPGQAPRTLIYGTNNRAPWTPARFSGSLLGGKAALTLLGAQPEDEAEYYCALWYSNHWVFGGGTKLTVL
notes: as for B5
B6: in assay [1], the Kd is at most 2 nM.

B7: C0120906 human Alya IgG1 (antibody, V domains shown)
VH: EVQLVQSGPEVKKPGASVKISCKASGYKLNDPGVHGVSWVRQAPGQGLEWMGWISTLNGDTRYAQKFQGRVTMATDSSTSTIYMDLRSLKSDDTALYYCARDDYTAIFDFWGRGTLVTVSS
VL: QSVLTQPPSVSVAPGQTASITCGGSNIGSQSVHWYQQKPGQAPVLVVYDDSDRPSGIPERFSGSKSGNTASLILSRVEAGDEADYYCQVWDSSTDHHVFGTGTKVTVL
notes: as for B1
Turning to B7, the equilibrium dissociation constant (Kd) in assay [1] amounted to 11 nM. Besides, in assay [2], the binding result is listed as “no binding (tested: log (M) -8 (1e-8 M))”.

B8: C0120917 human Alya IgG1 (antibody, V domains shown)
VH: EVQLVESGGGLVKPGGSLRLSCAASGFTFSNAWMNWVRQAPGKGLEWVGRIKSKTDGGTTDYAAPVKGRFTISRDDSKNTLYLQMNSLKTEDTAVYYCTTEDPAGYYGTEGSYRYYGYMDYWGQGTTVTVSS
VL: NFMLTQPHSVSESPGKTVTISCTASGDTLDNKYVNWYQVRPGSAPATLIFHYEERDSGVPDRFSGSFDASSNSASLTISGLQTADEADYFCQSYDSKRDNLVVFGGGTKVTVL
notes: as for B1
Regarding B8, the Kd in assay [1] was determined as 14 nM. For the same molecule, in assay [2], the binding result is listed as “no binding (tested: log (M) -8 (1e-8 M))”.

B9: mouse 5E3 expressed as human IgG1 Alya (antibody, V domains shown)
VH: QVQLQQPGAELVMPGASVKMSCKASGYTFTDYWMHWVKQRPGQGLEWIGAIDTSDSYTSYNQKFKGKATLTVDESSSTAYMQLSSLTSEDSAVYYCARDYGNFYYYAMDYWGQGTSVTVSS
VL: QAVVTQESALTTSPGETVTLTCRSSTGAVTTSNYANWVQEKPDHLFTGLIGGTNNRAPGVPARFSGSLIGDKAALTITGAQTEDEAIYFCALWYSNHWVFGGGTKLTVL
notes: Mouse variable domains on human IgG1 Alya constant (pEU1.22; 239iCys and S442C, EU numbering); purified, unconjugated; also called 5E3 IgG1 Alya
Turning to B9, the binding result in assay [2] was “no binding (tested: log (M) -8 (1e-8 M))”.

The term Kd denotes the equilibrium constant for the complex coming apart.
